In patent publication US12227570B2, “Anti-CEACAM6 antibodies and methods of use” (Singapore Health Services PTE LTD, priority 2016, dated 2025):

What was measured:
[1] = tested on: PC-9 Gefitinib resistant clones; assay: Propidium iodide staining (FL-3) for cytotoxicity of mAb alone; format: cell-based; settings: cells incubated with the mAb alone
Method: (§1) Cells were harvested as single cell suspensions using trypsin. 1E5 cells were used per sample, and incubated with 100 μl of mAb culture supernatant for 30 min. Cells were then washed with 1% bovine serum albumin in PBS, and further incubated with 100 μl of goat anti-mouse antibody fluorescein isothiocyanate (FITC)-conjugated (1:500, DAKO, Denmark) for 15 min at 4° C. in the dark. Cells were again washed and resuspended in 200 μL of 1% BSA/PBS for analysis on Guava® easy Cyte 8HT Benchtop Flow Cytometer (Merck Millipore, USA). For interrogation of […] binding, cells were fixed with 4% PFA/PBS (Affymetrix, USA) at room temperature for 10 min, washed in PBS, and permeabilised with 0.1% triton/PBS for 5 min at room temperature, before proceeding with incubation with mAb supernatant/primary antibody. For staining with propidium iodide, PI was added to a final concentration of 5 μg/mL for 5 min just prior to analysis by the flow cytometer.

[2] = tested on: normal cell lines (fibroblasts, endothelial and epithelial cells) and primary PBMCs; assay: Flow cytometry binding on normal cells; format: cell-based
Method: as §1

A549 = assay: Flow cytometry binding on A549 lung adenocarcinoma; format: cell-based; settings: A549 parental, heterogeneous binding
Method: as §1

CEACAM6 = molecular target: T1, CEACAM6 (Homo sapiens, UniProt P40199); assay: Western blot / flow cytometry binding after PNGase or Tunicamycin treatment; settings: for binding to the antigen band after PNGase treatment: Western blot, PC-9 lysate, N-glycans removed
T1 construct: 20 μg of PC-9 membrane protein extract was first denatured; endogenous in cells; host or cells: PC-9 cells
T1 sequence (P40199 35-320): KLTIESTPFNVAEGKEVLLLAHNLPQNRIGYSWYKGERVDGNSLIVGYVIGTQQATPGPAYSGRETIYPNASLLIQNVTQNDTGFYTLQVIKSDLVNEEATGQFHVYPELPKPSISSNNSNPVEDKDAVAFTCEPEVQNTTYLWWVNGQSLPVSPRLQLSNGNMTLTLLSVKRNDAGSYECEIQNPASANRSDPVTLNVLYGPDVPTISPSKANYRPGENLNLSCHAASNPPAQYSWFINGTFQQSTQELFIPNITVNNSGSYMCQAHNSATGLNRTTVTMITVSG
Method: Membrane proteins were extracted from PC-9 cell pellets using the Membrane Protein Extraction Kit (BioVision, USA). Briefly, cell pellets of 5E7 cells were resuspended in 1 mL of Homogenize Buffer and cell membranes broken in a dounce homogenizer. This was transferred into an Eppendorf tube and centrifuged at 700×g for 10 min at 4° C. to remove cell debris. The supernatant was transferred to a new Eppendorf tube and centrifuged at 12,000×g for 30 min at 4° C. to pellet the membrane. The membrane was finally resuspended in 500 μl of 1×Cell Lysis Buffer (Cell Signaling Technology, USA) containing protease inhibitors (Pierce ThermoScientific, USA). The membrane protein solution was clarified with by centrifugation at 15,000×g for 5 min at 4° C., to remove any insoluble proteins. Protein was quantified using the Pierce […] Protein Assay Reagent.
PC-9 membrane protein extracts, or IP products were denatured by in protein loading dye containing SDS at a final concentration of 1%, and heated at 95° C. for 5 min. The sample was then loaded into pre-cast gradient gel (NuPAGE 4-12% gradient gel, Invitrogen), and separated by SDS-PAGE running MOPS Running Buffer (NuPAGE Invitrogen, USA). After gel electrophoresis, the resolved proteins were transferred onto a polyvinylidene fluoride (PVDF) membrane (BioRad, USA) in a transfer buffer containing 20% methanol, 10% Tris-Glycine in DI water at constant voltage of 110V for 90 min.
The membrane was then blocked with 5% milk prepared in PBS/0.1% Tween-20 (PBS-T) for 30 min at room temperature. The membrane was then washed in PBS-T, followed by overnight incubation of GR6A04 at 2 μg/mL in 2.5% milk at 4° C. Subsequently, the membrane was washed in PBS-T, before incubation with goat anti-mouse secondary antibodies horseradish peroxidase-conjugated (1:10000, Dako) for 1 hour at room temperature. […]
PNGase digestion was carried out according to manufacturer's protocol (New England Biolabs). […] Digested proteins were subsequently analysed by Western blotting as described above. […]

A549−GR6A04+ = assay: ADCC reporter bioassay (Promega, Luciferase reporter for FcγR); format: cell-based
Method: (§2) ADCC activity was measured using a reporter bioassay (Promega; ADCC Reporter Bioassay, #G7010). The ADCC bioassay was carried out according to the manufacturer's protocol Briefly, PC-9 and A549 cells were seeded at 5,000 cells per well in a 96-well clear bottom black tissue culture plates (Corning; #3904) in low 4% IgG-serum (Promega; #G711A) media and allowed to attach and spread overnight. Serial dilutions of Hu-GR6A04 were incubated in triplicate wells for approximately 15 min at 37° C., 5% CO2. Following incubation, engineered effector cells were added to the wells at approximately 150,000 cells per well. After 6 hours, Bio-Glo™ Luciferase Assay Substrate (Promega; #G719A and #G720A) was added to the wells and luminescence was measured using the Infinite® 200 microplate reader (Tecan).

PC-9 = assay: as above; format: cell-based
Method: as §2

A549−GR6A04+ cells = assay: Subcutaneous xenograft model; format: in vivo, NCr Nude mice; settings: 10 mg/kg, 3 doses on D0, D4 and D8, start at tumour size >150 mm3
Method: Xenograft models were established using A549−GR6A04+ cells in NCr Nude mice. 5E6 cells in DMEM basal media were mixed at a 1:1 ratio with Matrigel, and injected subcutaneously at a volume of 200 μl. Tumours were allowed to form and reach a size of >150 mm^3, before they were randomised into 5 groups of 5 mice each. The groups were treated with mAbs as follows: (1) Buffer control; (2) GR6A04-MMAE; (3) Hu-GR6A04; (4) GR6A04; (5) MG1.45-MMAE isotype control. mAbs were injected via tail vein injection at a total volume of 100 μl. Each dose, were applicable, is at 200 μg (equivalent to 10 mg/kg), and treatment was done every 4 days, for a total of 3 doses (Day 0, 4 and 8). Tumour size was monitored over 50 days.

B1: GR6A04: mouse IgG1, κ anti-CEACAM6 monoclonal antibody, VH SEQ ID NO:1, VL SEQ ID NO:2, binds N-glycosylated CEACAM6 (antibody, V domains shown)
VH: SGPELVKPGASVKMSCKASGNTFTSYVMHWVKQKPGQGLEWIGYINPYNDGTKYNEKFKGKATLTSDKSSSTAYMELSSLTSEDSAVYYCARSTARATPYFYAMDYWGQGTSVTVSS
VL: DILMTQSPSSLAVTAGEKVTMRCKSSQSLLWSVNQNSYLSWYQLKQGQPPKLLLYGASIRESWVPDRFTGSGSGTDFTLTISNVHVEDLAVYYCQHNHGSFLPYTFGGGTKLEIK
modifications: Isolated antibody fragment
- cell cytotoxicity (propidium iodide staining, FL-3) [1]: no apparent cell cytotoxicity
- cell cytotoxicity (propidium iodide staining, FL-3) ([1]; listed as GR 6A04): no inherent cytotoxity
- binding on the cell surface of normal cells [2]: < 8%
- GR6A04+ population (positive binding tail) (A549): 15-30%
- binding after PNGase and Tunicamycin treatment (CEACAM6; PNGase digestion, Tunicamycin N-glycosylation inhibitor): affected
- binding to the antigen band after PNGase treatment (CEACAM6): abolished binding
- binding to the antigen band after PNGase treatment (CEACAM6; listed as GR 6A04): abolished
- EC50 (A549−GR6A04+): 1.33 nM
- EC50 (PC-9): 39.6 nM
- tumour growth versus buffer control (A549−GR6A04+ cells): slower growth compared to the buffer control
- tumour growth versus buffer control (A549−GR6A04+ cells; listed as Gr6A04): repression of tumour growth
